Measured values reported in patent US20260193348A1 (ANTENGENE BIOLOGICS, published 2026).
Numbering of substitutions follows the chain as printed. Numbers in names are those of the source. One block for each binder: values may come before it.

Experiments:
[1] = biological target: T1, GPRC5D on MM.1S cells (human, UniProt Q9NZD1 1-345); test: FACS on MM.1S cells
T1 construct: whole, on cells; MM.1S is called a GPRC5D positive expressed cell line and human multiple myeloma cells; also called G-protein coupled receptor family C group 5 member D
T1 sequence (Q9NZD1 whole entry): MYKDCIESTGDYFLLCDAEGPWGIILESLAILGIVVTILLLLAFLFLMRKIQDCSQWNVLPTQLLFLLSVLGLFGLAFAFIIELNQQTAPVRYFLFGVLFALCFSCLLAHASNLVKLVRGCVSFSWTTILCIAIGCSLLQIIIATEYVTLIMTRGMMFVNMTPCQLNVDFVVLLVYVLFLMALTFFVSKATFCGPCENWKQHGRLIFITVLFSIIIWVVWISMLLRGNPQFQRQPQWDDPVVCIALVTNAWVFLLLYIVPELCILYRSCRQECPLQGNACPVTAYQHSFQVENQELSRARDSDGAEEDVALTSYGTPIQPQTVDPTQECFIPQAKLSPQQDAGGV
Description: To evaluate the binding affinity of the generated chimeric bispecific antibody to T cells, the isolated CD3⁺ T cells were stained by antibodies and the binding affinity was determined by FACS analysis. The protocol of FACS analysis is described as follows: [0785] (a) CD3⁺ T cells were isolated from normal donors. [0786] (b) The isolated CD3⁺ T cells were washed by Staining Buffer (PBS+1% BSA) in round bottom 96-well plate. […] (c) Antibody dilutions were added to each well and mixed with the CD3+ T cells, incubated at 4 degrees for 1 hour. […] (d) Cells were spined at 300 g for 3 minutes, then the supernatants were discarded. [0789] (e) Cells were washed with Staining Buffer. [0790] (f) Step (d) was repeated, and the cells were incubated with secondary antibody in Staining Buffer for 0.5 hours at 4 degrees. [0791] (g) After incubation, step (d)-(e) were repeated. [0792] (h) Cells were resuspended in Staining Buffer and fluorescence signals were recorded by flow cytometry.
The binding affinities of the generated humanized Fab-scFv-Fab bispecific antibodies to MM.1S were evaluated by FACS analysis. The protocol for FACS analysis is identical to that described in Example 1.2, except that MM.1S were used in this example.

[2] = biological target: T1, GPRC5D on MM.1S cells; test: cell-based or functional assay
[3] = biological target: T2, CD3 on Jurkat cells (UniProt P07766 23-207; P04234 22-171; P09693 23-182); test: FACS on Jurkat cells
T2 construct: whole, on cells; On the cell, CD3 stands in the TCR-CD3 complex; also called cluster of differentiation 3
T2 sequence (P07766 23-207, chain 1 of 3): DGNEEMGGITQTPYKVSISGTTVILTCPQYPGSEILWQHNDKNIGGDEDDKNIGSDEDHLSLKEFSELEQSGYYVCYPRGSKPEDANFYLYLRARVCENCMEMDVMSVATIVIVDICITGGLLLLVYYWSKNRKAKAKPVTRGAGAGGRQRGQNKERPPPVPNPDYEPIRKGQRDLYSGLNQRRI
T2 sequence (P04234 22-171, chain 2 of 3): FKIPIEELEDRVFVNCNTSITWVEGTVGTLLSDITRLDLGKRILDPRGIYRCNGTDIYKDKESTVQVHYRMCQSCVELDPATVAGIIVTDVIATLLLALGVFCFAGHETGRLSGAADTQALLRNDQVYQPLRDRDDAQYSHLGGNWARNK
T2 sequence (P09693 23-182, chain 3 of 3): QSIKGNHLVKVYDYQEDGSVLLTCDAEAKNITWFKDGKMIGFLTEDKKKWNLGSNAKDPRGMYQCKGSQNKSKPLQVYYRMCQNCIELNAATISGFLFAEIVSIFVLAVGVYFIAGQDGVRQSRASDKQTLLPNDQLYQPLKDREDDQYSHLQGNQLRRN
Description: The binding affinities of the generated humanized Fab-scFv-Fab bispecific antibodies were determined by FACS analysis. […] (a) Jurkat cells were washed by Staining Buffer (PBS+1% BSA) in round bottom 96-well plate. [0833] (b) Antibody dilutions and cells were added to each well, incubated at 4 degrees for 1 hour. [0834] (c) Cells were spined down at 300 g for 3 minutes, and the supernatants were discarded. [0835] (d) Cells were washed with Staining Buffer. […] (e) Step (d) was repeated and the cells were incubated for 0.5 hours at 4 degrees with secondary antibody in Staining Buffer. [0837] (f) After incubation, step (d)-(e) were repeated. […] (g) Staining Buffer was added and fluorescence signals were recorded by flow cytometry.
The binding affinities of the generated humanized Fab-scFv-Fab bispecific antibodies were determined by FACS analysis. The protocol for FACS analysis is identical to that described in Example 3.2, except that different test antibodies were used.

[4] = biological target: T1, GPRC5D on MM.1S cells; test: cell-based or functional assay; remark: listed apart in the source

Ratio of EC50 (relative to ATG-Bis-40E9) [1]: 2.5 ratio | Ratio of Top MFI (relative to ATG-Bis-40E9) [1]: 1.25 ratio | Ratio of EC50 (relative to ATG-Bis-40E9) [3]: 1.24 ratio | Ratio of Top MFI (relative to ATG-Bis-40E9) [3]: 0.68 ratio | Ratio of EC50 (relative to ATG-Bis-40E9), luciferase assay on MM.1S [4]: 2.79 ratio | Ratio of Top RLU (relative to ATG-Bis-40E9), luciferase assay on MM.1S [4]: 0.85 ratio
B1: Bis-40E9-L2H7 (bispecific antibody)
heavy 1: not shown
heavy 2: EVQLVQSGAEVKKPGASVKVSCKASGYTFTSYVIHWVRQAPGQGLEWMGYFNPYNDGTKYNEEFKGRVTLTSDKSTSTAYMELRSLRSDDTAVYYCARGGVRRYFDVWGQGTTVTVSSASTKGPSVFPLAPSSKSTSGGTAALGCLVKDYFPEPVTVSWNSGALTSGVHTFPAVLQSSGLYSLSSVVTVPSSSLGTQTYICNVNHKPSNTKVDKKVEPKSCGGGGSGGGGSEVQLVQSGAEVKKPGSSVKVSCKASGYTFSSYVIHWVRQAPGQCLEWMGYINPGNGVIKYNEKFKGRVTLTSDKSTSTAYMELSSLRSEDTAVYYCARDSYSSYDGFAYWGQGTLVTVSSGGGGSGGGGSGGGGSGGGGSEIVLTQSPDFQSVTPKEKVTITCSASSSVSYMHWYQQKPDQSPKRLIYDTSKLASGVPSRFSGSGSGTDFTLTINSLEAEDAATYYCQQWSSNPPTFGCGTKVEIKGGGGSGGGGSDKTHTCPPCPAPEAAGGPSVFLFPPKPKDTLMISRTPEVTCVVVDVSHEDPEVKFNWYVDGVEVHNAKTKPREEQYNSTYRVVSVLTVLHQDWLNGKEYKCKVSNKALPAPIEKTISKAKGQPREPQVCTLPPSREEMTKNQVSLSCAVKGFYPSDIAVEWESNGQPENNYKTTPPVLDSDGSFFLVSKLTVDKSRWQQGNVFSCSVMHEALHNHYTQKSLSLSPGK
light: DIQMTQSPSSLSASVGDRVTITCRASQDIGSNLNWLQQKPGKAIKRLIYATFGLDSGVPSRFSGSRSGTDFTLTISSLQPEDFATYYCQQYASFPYTFGGGTKVEIKRTVAAPSVFIFPPSDEQLKSGTASVVCLLNNFYPREAKVQWKVDNALQSGNSQESVTEQDSKDSTYSLSSTLTLSKADYEKHKVYACEVTHQGLSSPVTKSFNRGEC
notes: Fab-scFv-Fab format with LALA mutations
Ratio of IC50 (relative to ATG-Bis-40E9), MM.1S cytotoxicity [2]: 3.21 ratio | Ratio of Top cytotoxicity (relative to ATG-Bis-40E9), MM.1S cytotoxicity [2]: 0.98 ratio

Ratio of EC50 (relative to ATG-Bis-40E9) [1]: 1.27 ratio | Ratio of Top MFI (relative to ATG-Bis-40E9) [1]: 0.954 ratio | Ratio of EC50 (relative to ATG-Bis-40E9) [3]: 13.6 ratio | Ratio of EC50 (relative to ATG-Bis-40E9), luciferase assay on MM.1S [4]: 4.89 ratio | Ratio of Top RLU (relative to ATG-Bis-40E9), luciferase assay on MM.1S [4]: 1.57 ratio
B2: Bis-40E9-L2H3-Y101F.H (bispecific antibody)
heavy 1: not shown
heavy 2: B1 heavy 2 with G285Y, G287D, Y332F, S333Y
light: B1 light
notes: as for B1
Ratio of IC50 (relative to ATG-Bis-40E9), MM.1S cytotoxicity [2]: 1.94 ratio | Ratio of Top cytotoxicity (relative to ATG-Bis-40E9), MM.1S cytotoxicity [2]: 1.03 ratio

Ratio of EC50 (relative to ATG-Bis-40E9) [3]: 2.41 ratio | Ratio of Top MFI (relative to ATG-Bis-40E9) [3]: 0.55 ratio | Ratio of EC50 (relative to ATG-Bis-40E9), luciferase assay on MM.1S [4]: 0.81 ratio | Ratio of Top RLU (relative to ATG-Bis-40E9), luciferase assay on MM.1S [4]: 1.01 ratio
B3: Bis-40E9-L2H3-D56G.H (bispecific antibody)
heavy 1: not shown
heavy 2: B1 heavy 2 with G285Y, S333Y
light: B1 light
notes: as for B1
Ratio of IC50 (relative to ATG-Bis-40E9), MM.1S cytotoxicity [2]: 0.99 ratio | Ratio of Top cytotoxicity (relative to ATG-Bis-40E9), MM.1S cytotoxicity [2]: 1 ratio

Ratio of EC50 (relative to ATG-Bis-40E9) [1]: 1.02 ratio | Ratio of Top MFI (relative to ATG-Bis-40E9) [1]: 0.975 ratio | Ratio of EC50 (relative to ATG-Bis-40E9) [3]: 2.31 ratio | Ratio of Top MFI (relative to ATG-Bis-40E9) [3]: 0.83 ratio | Ratio of EC50 (relative to ATG-Bis-40E9), luciferase assay on MM.1S [4]: 5.77 ratio | Ratio of Top RLU (relative to ATG-Bis-40E9), luciferase assay on MM.1S [4]: 0.81 ratio
B4: Bis-40E9-L2H14 (bispecific antibody)
heavy 1: not shown
heavy 2: B1 heavy 2 with G285Y, G287D, D330E, S333Y
light: B1 light
notes: Fab-scFv-Fab format with LALA mutations; copies: 1 + 1 + 2
Ratio of IC50 (relative to ATG-Bis-40E9), MM.1S cytotoxicity [2]: 10.4 ratio | Ratio of Top cytotoxicity (relative to ATG-Bis-40E9), MM.1S cytotoxicity [2]: 0.98 ratio

Ratio of EC50 (relative to ATG-Bis-40E9) [3]: 4.53 ratio | Ratio of Top MFI (relative to ATG-Bis-40E9) [3]: 1.17 ratio | Ratio of EC50 (relative to ATG-Bis-40E9), luciferase assay on MM.1S [4]: 1.32 ratio | Ratio of Top RLU (relative to ATG-Bis-40E9), luciferase assay on MM.1S [4]: 0.79 ratio
B5: Bis-40E9-L2H3-D105R.H (bispecific antibody)
heavy 1: not shown
heavy 2: B1 heavy 2 with G285Y, G287D, S333Y, D336R
light: B1 light
notes: as for B1
Ratio of IC50 (relative to ATG-Bis-40E9), MM.1S cytotoxicity [2]: 0.86 ratio | Ratio of Top cytotoxicity (relative to ATG-Bis-40E9), MM.1S cytotoxicity [2]: 1.01 ratio
